Test results from patent US20230176070A1 (published 2023).

T1: PDZ domain of mitochondrial outer membrane protein 25 (mammalian (so in the source), UniProt P57105 6-100, limits assumed)
T1 construct: domain: PDZ domain; Wild type PDZ as coated in ELISA and immobilised in SPR; also called wild type PDZ; OMP25 PDZ domain
T1 sequence (looked up): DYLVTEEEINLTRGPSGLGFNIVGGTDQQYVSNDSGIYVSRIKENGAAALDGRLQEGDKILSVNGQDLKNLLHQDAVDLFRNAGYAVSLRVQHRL

T2: MBP-PDZ fusion protein (mammalian (so in the source), UniProt P57105 6-100, limits assumed)
T2 construct: domain: PDZ domain; also called MBP fusion PDZ
T2 sequence (looked up): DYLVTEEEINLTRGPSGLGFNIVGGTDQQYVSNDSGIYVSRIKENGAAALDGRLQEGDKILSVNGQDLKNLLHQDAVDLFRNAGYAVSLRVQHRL


Columns and labels:
human serum albumin [1] = target: T3, human serum albumin (human, UniProt P02768 25-609); experiment: indirect ELISA, HSA coated
T3 construct: In the mutant screen wild type HSA came from medium of transfected HeLa cells; also called HSA; wild type HSA
Description: (§1) Indirect ELISA was carried out to evaluate the camelid immune response of an antigen and to quantify the relative affinities of antigen-specific Nbs. An antigen was coated onto a 96-well ELISA plate (R&D system) at an amount of approximately 1-10 ng per well in a coating buffer (15 mM sodium carbonate, 35 mM sodium bicarbonate, pH 9.6) overnight at 4° C. The well surface was then blocked with a blocking buffer (DPBS, 0.05% Tween 20, 5% milk) at room temperature for 2 hours. To test an immune response, the immunized serum was serially 5-fold diluted in the blocking buffer. The diluted sera were incubated with the antigen coated wells at room temperature for 2 hours. HRP-conjugated secondary antibodies against llama Fc (Bethyl) were diluted 1:10,000 in the blocking buffer and incubated with each well for 1 hour at room temperature. […] Nbs of both specific binders for test and scramble negative controls were serially 10-fold diluted from 10 μM to 1 μM in the blocking buffer. HRP-conjugated secondary antibodies against His-tag (Genscript) or T7-tag (Thermo) were diluted 1:5,000 or 1:10,000 in the blocking buffer and incubated for 1 hour at room temperature. Three washes with 1x PBST (DPBS, 0.05% Tween 20) were carried out to remove nonspecific absorbance between incubations. After the final wash, the samples were further incubated under dark with freshly prepared w3,3′,5,5′-Tetramethylbenzidine (TMB) substrate for 10 mins at room temperature to develop the signals. After the STOP solution (R&D system), the plates were read at multiple wavelengths (450 nm and 550 nm) on a plate reader (Multiskan GO, Thermo Fisher). A false positive Nb binder was defined if any of the following two criteria was met: i) the ELISA signal can only be detected at a concentration of 10 μM and was under detected at 1 μM concentration. ii) At 1 μM concentration, a pronounced signal decrease (by more than 10-fold) was detected compared to the signal at 10 μM, while there were no signals can be detected at lower concentrations. The raw data was processed by Prism 7 (GraphPad) to fit into a 4PL curve and to calculate logIC50.

human serum albumin [2] = target: T3, human serum albumin; experiment: SPR, HSA immobilised;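 further: nanobody analytes injected as dilution series across three log units over CM5 chip with amine-coupled antigen, kinetics fitted by 1:1 Langmuir model, optionally with mass transfer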
Description: (§2) Nb affinity measurement by SPR. Surface plasmon resonance (SPR, Biacore 3000 system, GE Healthcare) was used to measure Nb affinities. Antigen proteins immobilized on the activated CM5 sensor-chip by the following steps. Protein analytes were diluted to 10-30 μg/ml in 10 mM sodium acetate, pH 4.5, and were injected into the SPR system at 5 μl/min for 420 s. The surface of the sensor was then blocked by 1 M ethanolamine-HCl (pH 8.5). For each Nb analyte, a series of dilution (spanning three orders of magnitude) was injected in HBS-EP+ running buffer (GE-Healthcare) containing 2 mM DTT, at a flow rate of 20-30 μl/min for 120-180 s, followed by a dissociation time of 5-20 mins based on dissociation rate. Between each injection, the sensor chip surface was regenerated with the low pH buffer containing 10 mM glycine-HCl (pH 1.5-2.5), or high pH buffer of 20-40 mM NaOH (pH 12-13). The regeneration was performed with a flow rate of 40-50 μl/min for 30 s. The measurements were duplicated and only highly reproducible data was used for analysis. Binding sensorgrams for each Nb were processed and analyzed using BIAevaluation by fitting with 1:1 Langmuir model or 1:1 Langmuir model with mass transfer.

[3] = target: T1, PDZ domain of mitochondrial outer …; experiment: indirect ELISA, wild type PDZ coated
Description: Indirect ELISA was carried out to evaluate the camelid immune response of an antigen and to quantify the relative affinities of antigen-specific Nbs. An antigen was coated onto a 96-well ELISA plate (R&D system) at an amount of approximately 1-10 ng per well in a coating buffer (15 mM sodium carbonate, 35 mM sodium bicarbonate, pH 9.6) overnight at 4° C. The well surface was then blocked with a blocking buffer (DPBS, 0.05% Tween 20, 5% milk) at room temperature for 2 hours. To test an immune response, the immunized serum was serially 5-fold diluted in the blocking buffer. The diluted sera were incubated with the antigen coated wells at room temperature for 2 hours. […] Three washes with 1x PBST (DPBS, 0.05% Tween 20) were carried out to remove nonspecific absorbance between incubations. […] After the STOP solution (R&D system), the plates were read at multiple wavelengths (450 nm and 550 nm) on a plate reader (Multiskan GO, Thermo Fisher). A false positive Nb binder was defined if any of the following two criteria was met: i) the ELISA signal can only be detected at a concentration of 10 μM and was under detected at 1 μM concentration. ii) At 1 μM concentration, a pronounced signal decrease (by more than 10-fold) was detected compared to the signal at 10 μM, while there were no signals can be detected at lower concentrations. […]

[4] = target: T1, PDZ domain of mitochondrial outer …; experiment: SPR, PDZ immobilised
[5] = target: T4, glutathione S-transferase (UniProt P08515 1-218 = GST); experiment: SPR, GST immobilised (legend of FIG. 3H; differs from Table 1)
T4 construct: Expressed in E. coli, purified on GSH resin; also called GST
Description: as §2

[6] = target: T4, glutathione S-transferase; experiment: indirect ELISA, GST coated;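 further: nanobody dilution series starting at 10 µM binding plate-bound antigen, HRP anti-His or anti-T7 tag detection, TMB absorbance at 450 nm, logIC50 from four-parameter logistic fit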
Description: as §1

[7] = target: T4, glutathione S-transferase; experiment: SPR, GST immobilised;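 further: nanobody analytes injected as dilution series over three orders of magnitude across antigen on a CM5 chip, kinetics fitted by 1:1 Langmuir model, optionally with mass transfer, duplicate runs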
Description: as §2

human serum albumin [8] = target: T3, human serum albumin; experiment: SPR, HSA immobilised (legend of FIG. 3I; differs from Table 2)
Description: as §2

MBP-PDZ fusion protein = target: T2, MBP-PDZ fusion protein; experiment: beads-binding assay, MBP-PDZ-coupled resin
Description: After Nb induction and cell lysis, the cell lysates were run on SDS-PAGE to estimate Nb expression levels. Recombinant Nbs in the cell lysis were diluted in 1x DPBS (pH 7.4) to a final concentration of ˜5 μM (for GST Nbs) and ˜50 nM (for PDZ Nbs). To test the specific interactions of Nbs with antigens, different antigens were coupled to the CNBr resin. Inactivated or MBP-conjugated CNBr resin was used for control. Antigen coupled resins or control resins were incubated with Nb lysates at 4° C. for 30 mins. The resins were then washed three times with a washing buffer (1x DPBS with 150 mM NaCl and 0.05% Tween 20) to remove nonspecific bindings. Specific antigen bound Nbs were then eluted from the resins by the hot LDS buffer containing 20 mM DTT and ran on SDS-PAGE. The intensities of Nbs on the gel were compared between antigen specific signals and control signals to derive the false positive binding.

T3 sequence (P02768 25-609 limits assumed): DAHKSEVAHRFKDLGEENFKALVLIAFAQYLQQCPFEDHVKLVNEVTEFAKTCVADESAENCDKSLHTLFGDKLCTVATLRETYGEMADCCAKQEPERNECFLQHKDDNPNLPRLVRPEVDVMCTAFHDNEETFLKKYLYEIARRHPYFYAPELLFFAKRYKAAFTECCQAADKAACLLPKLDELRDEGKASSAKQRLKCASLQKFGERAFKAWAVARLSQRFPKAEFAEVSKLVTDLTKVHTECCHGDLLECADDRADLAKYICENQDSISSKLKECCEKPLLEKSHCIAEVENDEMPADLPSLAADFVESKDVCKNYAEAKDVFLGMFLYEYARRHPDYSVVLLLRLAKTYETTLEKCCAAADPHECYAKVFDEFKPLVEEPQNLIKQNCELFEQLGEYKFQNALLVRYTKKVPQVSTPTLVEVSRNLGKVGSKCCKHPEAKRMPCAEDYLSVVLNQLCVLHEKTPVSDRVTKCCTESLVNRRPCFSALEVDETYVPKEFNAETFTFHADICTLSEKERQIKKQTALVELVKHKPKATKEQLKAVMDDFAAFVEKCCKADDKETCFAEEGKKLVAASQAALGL
T4 sequence (P08515 whole entry): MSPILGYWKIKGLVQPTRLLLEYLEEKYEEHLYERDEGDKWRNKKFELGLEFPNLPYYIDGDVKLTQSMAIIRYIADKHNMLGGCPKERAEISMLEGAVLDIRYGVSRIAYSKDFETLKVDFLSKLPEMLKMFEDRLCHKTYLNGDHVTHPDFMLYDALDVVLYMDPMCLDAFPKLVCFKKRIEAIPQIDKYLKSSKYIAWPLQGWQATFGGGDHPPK

Binder	ELISA affinity (LogIC50 (oD450nm)) (human serum albumin [1])	Kd (human serum albumin [2])	koff (human serum albumin [2])	kon (human serum albumin [2])	binding result (MBP-PDZ fusion protein)	also measured
H21 (VHH) VHH: QVQLVESGGGLVQAGGSLRLSCAASGYTSGNDAMGWFRQAPGKEREFVGAIRWSGVSTYYADSVKGRFTISRDGAKNTLYLQMNSLKPEDTAVYYCAAKFTGSAWYGVQKLESTYWDYWGQGTQVTVSS	5.63	0.266 nM	0.000182 s⁻¹	683000 M⁻¹ s⁻¹		
NbPDZ P10 (VHH) VHH: DVQLVESGGGLVQAGGSLRLSCTASGRTFSTYTMAWFRQAPGKEREFVAAITWSGTYYADSVKGRFTISRDNAKNTMYLQMNSLKPEDTAVYICAAVIGSTVDSYSPSDPLEYDYWGQGTQVTVSE						WT ELISA affinity (LogIC50 (oD450nm)) [3]: 5.21; Kd [4]: 0.0044 nM; koff [4]: 9.03e-06 s⁻¹; kon [4]: 2.06e+06 M⁻¹ s⁻¹
G60 (VHH, also called G60(C1)) VHH: QMGRNSAEVQLVESGGSLRLSCAASGSGFSSSIIAWYRQAPGKQRELVAAIGGPGSTNYADFVEGRFTISRDNAKNTGYLQMNNLNPEDTAVYYCNEVTRSGREYWGQGTQVTVSS						Kd [5]: 1300 nM; ELISA affinity (LogIC50 (oD450nm)) [6]: 2.49; Kd [7]: 1200 nM; koff [7]: 0.00586 s⁻¹; kon [7]: 4870 M⁻¹ s⁻¹
H30 (VHH) VHH: HVQLVESGGGLAQAGGSLRLSCAASGGTFSNSCMGWFRQAPGMEREFVAIIRSTGHTTYADSVEGRFTVSRDIAKNTVYLEMNSLKPEDTAVYSCVAGVSDYGCYRTSGIKYWGQGTQVTVSS	5.89	0.164 nM	0.000168 s⁻¹	1.03e+06 M⁻¹ s⁻¹		
H7 (VHH) VHH: DVQLVESGGGSVQAGGSLRLSCAASGGTFSSYAMGWYRQAPGKEREFVSGISWSGSSIDYVDSVKGRFTISRDNAKNTVYLQMNSLKPEDTAVYYCGAADPMGLGYGLGPRPVDRLLSAECDYWGQGTQVTVSS	5.62	1.09 nM	9.79e-05 s⁻¹	93500 M⁻¹ s⁻¹		
H18 (VHH) VHH: EVQLVESGGGLVQAGGSLRLSCTASGPKDTPYTMGWFRQVPGKEREFVASVLWSGINTDYADSVKGRFAISRNNAKNTMYLQMNSLKPEDTAVYYCAAGYGLGFYRSISQYDYWGHGTQVTVSS	5.65	0.502 nM	8.71e-05 s⁻¹	171000 M⁻¹ s⁻¹		
H20 (VHH) VHH: EVQLVESGGGLVQAGGSLRLSCTASGPKDTPYTMGWFRQVPGKEREFVASVLWSGINTDYADSVKGRFAISRNNAKNTMYLQMNSLKPEDTAVYYCAAGYGLGFYRTVSQYDYWGHGTQVTVSS	5.76	0.247 nM	3.8e-05 s⁻¹	154000 M⁻¹ s⁻¹		
H3 (VHH) VHH: QVQLVESGGGLVQAGGSLRLSCVASGRTFEPFVMGWFRQAPGKEREFVATISWSGGSLSYADSVKGRFTVSRDNAKNTVYLQMNSLKPEDTAVYYCAAAPGVGNYRYTFQYDYWGQGTQVTVSE	7	0.454 nM	0.000504 s⁻¹	1.11e+06 M⁻¹ s⁻¹		
H14 (VHH) VHH: HVQLVESGGGLVQAGGSLRLSCTASGRTFTPYTMGWFRQAPGKEREFVASILWSGNNRDYADSVKDRFAISRDNAKNTAYLQMNSLKPEDTAVYYCAAGDGLGFYRSVNQYDYWGQGTQVTVSS	5.96	0.0223 nM	5.57e-06 s⁻¹	250000 M⁻¹ s⁻¹		koff (human serum albumin [8]): 5.75e-06 s⁻¹
H25 (VHH) VHH: DVQLVESGGGLVQAGGSLRLSCAASGRTISDYGMAWFRQAPGKEREFVGVITSNSVTTYYADSVKGRFTISRDNTKNTVYLQMISLKPEDTAIYYCAARIPVGFYYNARNYDFWGQGTQVTVSS	5.34	0.858 nM	0.000802 s⁻¹	936000 M⁻¹ s⁻¹		
H2 (VHH) VHH: QVQLVESGGGLVQAGGSLRLSCTASGRTFTPYTIGWFRQAPGKEREFVASILWSGINTDYADSVKGRFAISRDNAKNAAYLQMSNLKPEDTAVYYCATGGGLGYYRSVSQYDYWGQGTQVTVSE	5.88	0.17 nM	3.99e-05 s⁻¹	234000 M⁻¹ s⁻¹		
H4 (VHH) VHH: HVQLVESGGGLVQTGGSLRLACAASGRAFSTYAMGWFRQAPGKEREFVASINRSGSSTYYADSVKGRFTISRDNGKDTVYLQMNRLIPEDTAVYYCAADSEGVGFRNMLEYDYWGQGTQVTVSS	5.4	0.266 nM	0.000264 s⁻¹	992000 M⁻¹ s⁻¹		
H35 (VHH) VHH: EVQLVESGGGLVQAGGSLRVSCAVSGISIYHSGWYRQAPGKERELVAGISRGGSTNYADSVKGRFTISRDSGENTVYLQMNSLKPEDTAVYYCKIDWDYRGVSQTAWGQGTQVTVSS						binding result (human serum albumin [1]): no binding (tested: Nb titrated from 10 µM)
H28 (VHH, also called N28) VHH: DVQLVESGGGLAQAGGSLRLSCAASGRTFSNECMGWFRQAPGKEREFVATIRSTGHISYATSVQGRFTVSRDIAKNTVYLEMNNLKPEDTAVYSCGAGVSDYGCYRTSGYNYWGQGTQVTVSS	5.12	1.66 nM	0.00868 s⁻¹	5.24e+06 M⁻¹ s⁻¹		
H16 (VHH) VHH: QVQLVESGGGLVQTGGSLTLSCAASGRTFSTKSMGWFRQAPGKEREFVADINWNGGITHYADSVEGRFTISRDNANDMVYLQMNSLKPEDTAVYYCAGGRYSTLFSKSEADYDYWGQGTQVTVSS	5.99	0.0862 nM	0.000116 s⁻¹	1.34e+06 M⁻¹ s⁻¹		
H11 (VHH) VHH: QVQLVESGGGLVQVGGSLRLSCAASGRTFSNYVMGWFRQAPGKEREFVAYIHWSGSSTSYADSVKGRFTISRDNTKNTMYLQMNSLKPEDTAVYYCTADQYASTLLRAAGEYWGQGTQVTVSS	6.27	0.061 nM	1.55e-05 s⁻¹	255000 M⁻¹ s⁻¹		
P2 (VHH) VHH: DVQLVESGGGLVQAGGSLRLSCAASGHTFSSYTMGWFHQAPGKEREFVAEISGTGGNTGYADSVKGRFTISRDNAKNTVYLQMNSLKPEDTAVYYCAAVIGSPTDSSDYRSSLDYDYWGQGTQVTVSE					binds	

More lines, main results first:

ELISA affinity (LogIC50 (oD450nm)) (human serum albumin [1])	Kd (human serum albumin [2])	koff (human serum albumin [2])	kon (human serum albumin [2])	binding result (MBP-PDZ fusion protein)	Binder	also measured
				binds	P5 (VHH) VHH: DVQLVESGGGLVQAGDSLRLSCAASGITFRWYTMAWFRQAPGKERDFVATINWSGSDTNYADSVKGRFTISRDNAKNTVTLQMNSLQPEDTAVYYCAGVPGTSLSGETDPRDYDYWGQGTQVTVSE	
				binds	P15 (VHH) VHH: QVQLVESGGGLVQAGGSLRLSCVASGRPFSSLDMGWFRQRPGKERDVVATINWTGDSTYYLDSVKGRFTISRDNAKNTVFLQMNSLKPEDTAVYYCAARGGGSSVDSEYDVGEFEYDYWGQGTQVTVSS	
				binds	P4 (VHH) VHH: HVQLVESGGGLVQAGGSLRLSCAAAGRTSSDYAMGWFRQAPGKEREFVSAINWSGISTYYADSVKGRFTISRDNAKNTVHLQMNSLKPEDTAVYYCAAEKLESLRNWHDPLMYDYWGQGTQVTVSE	
				binds	P1 (VHH) VHH: DVQLVESGGGLVQPGGSLRLSCAASGFTLDDYAIGWFRQAPGKEREGVSCISSHGSTYYADSVKGRFTISRDNVKNTLYLQMNSLKPEDTALYYCAASYYSDYEVAVCRSDALDAWGQGTQVTVSE	
				binds	P3 (VHH) VHH: DVQLVESGGGLVQAGGSLRLSCAASGRTFSSYTMGWFHQAPGKEREFVAEIGGTGGNTGYADSVKGRFTISRDNAKNTVYLQMNSLKPEDTAVYYCAAVIGSPTDSSDYRSSLDYDYWGQGTQVTVSE	
				binds	P6 (VHH) VHH: HVQLVESGGGLVQAGGSLRLSCAASGRTFSRYTMGWFHQAPGKEREFVAEISGTGGNTGYADSVKGRFTMSRDNAKNTVYLQMNSLKPEDTGVYYCAAVIGSPTDSSDYRSSLDYDYWGQGTQVTVSE	
